In patent US20110201549A1 (UNIVERSITY OF GEORGIA RESEARCH FOUNDATION, published 2011):

Target: T1, chymotrypsin-treated Cry3Bb (Bacillus thuringiensis, UniProt Q06117 162-652)
T1 construct: Insecticidal Cry toxin; It was coated on microtiter plates after chymotrypsin treatment; also called Cry3Bb protein; Cry3Bb toxin
T1 sequence: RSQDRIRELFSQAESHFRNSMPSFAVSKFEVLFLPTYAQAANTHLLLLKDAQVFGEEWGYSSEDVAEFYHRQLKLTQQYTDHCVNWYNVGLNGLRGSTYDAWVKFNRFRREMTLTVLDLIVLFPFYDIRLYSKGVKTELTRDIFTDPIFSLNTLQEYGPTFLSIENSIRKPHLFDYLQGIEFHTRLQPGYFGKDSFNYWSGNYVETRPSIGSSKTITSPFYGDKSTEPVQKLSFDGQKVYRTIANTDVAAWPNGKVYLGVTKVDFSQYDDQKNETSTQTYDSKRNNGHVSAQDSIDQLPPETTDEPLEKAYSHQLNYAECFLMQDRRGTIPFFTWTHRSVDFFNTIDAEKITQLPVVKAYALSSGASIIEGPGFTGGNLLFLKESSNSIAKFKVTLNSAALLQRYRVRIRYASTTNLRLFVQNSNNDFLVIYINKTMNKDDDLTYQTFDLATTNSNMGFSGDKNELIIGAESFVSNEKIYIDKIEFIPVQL
Experiment: ELISA-based microplate binding assay: plates coated with chymotrypsin-treated Cry3Bb, increasing concentrations of biotinylated TmCad1-TBR, streptavidin-HRP detection, one site saturation fit
Method: FIG. 7 illustrates TmCad1-TBR binding to Cry3Bb (Panel A) and enhancement of Cry3Bb toxicity to lesser mealworm by TmCad1-TBR peptides (Panel B). In Panel A, TmCad1-TBR binding to Cry3Bb protein was determined using an ELISA-based binding assay. Microtiter plates were coated with chymotrypsin-treated Cry3Bb and then incubated with increasing various concentrations of biotinylated TmCad1-TBR peptide. Bound biotinylated TmCad1-TBR peptide was detected with a Streptavidin-HRP conjugate and substrate. Non-specific binding was determined in the presence of 1000-fold excess unlabeled TmCad1-TBR peptide. Each data point is the mean of two experiments done in duplicate. Error bars depict standard deviation. Binding affinities (Kd) were calculated based on specifically bound biotinylated TmCad1-TBR peptide using a one site saturation binding equation. […] Cry3Bb inclusions without or with and increased amount of TmCad1-TBR inclusions were applied to semi-solid diet. One 1st instar darkling beetle larva was applied per well and the bioassays was scored on day 3. No toxicity was observed when treated with TmCad1-TBR peptide alone.
We tested the possibility that TmCad1-TBR binds a coleopteran-active Cry toxins using a microplate binding assay described previously (Zhang et al. 2008). […] TmCad1-TBR also enhances Cry3Bb toxicity to A. diaperinus larvae (FIG. 7A).

B1: TmCad1-TBR cadherin fragment from the Tenebrio molitor cadherin (T. molitor cadherin Toxin Binding Region) (receptor)
chain: MKQWYQRRVAITAGKDTTSKDKLQYNIDNITPSNLDLDIKSAFTMNTQSGDITINFEVKDSMEGYFTLDLSVQDEEPENHKADATLKIYIVTSKNTVVFRFENDQETVSDKAGDIKSVLDEEFQYETKVEAPTGNTTDGTPLTRSPVFFLNLNTNEPVDATEILKKVTNVDVFQRLKNNFSKVGLVLLSFDSSSETNENLEAHHHHHH
modifications: biotinylated (sites not given)
notes: also called CR12-MPED of TmCad1
**Q.** B1 was tested. Which Kd did it give?
**A.** Its Kd is 13 nM.
